For one test, the system named is P. falciparum NF54 line. Briefly: Rat immunization, ELISA of antiserum and standard membrane feeding assay (SMFA) of purified IgG. Type of test: in vivo, Plasmodium falciparum. To be noted: SD rats i.m., 20 μg antigen with composition of Example 6 as adjuvant; 250 ug/mL total IgG with complement in SMFA. The method, then: SD rats (Charles River Laboratories Japan) were immunized intramuscularly (i.m.) in the thigh muscles of the hind limb with 50 μL of a vaccine formulation consisting of 20 μg of an antigen, tagged Pfs230D1+ or non-tagged Pfs230D1+, and 8110 μg of the composition of Example 6 as an adjuvant (which corresponded to 10 μg of Compound A); 20 μg of tagged Pfs230D1+ alone for FIG. 2 or 20 μg of tagged Pfs230D1+ and 8110 μg of the composition of Example 6 for FIG. 5; or 8110 μg of the composition of Example 6 alone as a control. Rats received two or three injections on day 0 and 21 or day 0, 21, and 42. On day 42 or 56, rats were sacrificed, and blood was collected. After collection of the whole blood, the blood allowed to clot by leaving it undisturbed at room temperature for 4 hours. The clot was removed by centrifuging at 2,000×g for 10 minutes in a refrigerated centrifuge.
For the sera on day 42 or 56, the antibody levels against corresponding proteins were determined individually by ELISA (FIG. 2a for tagged Pfs230D1+, FIG. 5a for non-tagged Pfs230D1+).
For each group, an equal amount of serum from each rat was pooled regardless of ELISA units. […]
The standardized methodology for performing the SMFA is known in the art. […] Only midguts from mosquitoes with any eggs in their ovaries at the time of dissection were analysed (FIG. 2b for tagged Pfs230D1+, FIG. 5b for non-tagged Pfs230D1+). […]

Test [1] concerns anti-Pfs230 human monoclonal antibodies. Briefly: Western blotting of purified Pfs230D1+ with anti-Pfs230 human monoclonal antibodies. Format: binding. To be noted: Western blot, 10 μg/mL antibody, 20 ng protein per lane, non-reducing conditions. The method, then:
Samples were diluted with 4×LDS (Lithium dodecyl sulfate, Invitrogen) sample buffer, heated for 5 min at 90° C. and loaded in a final volume of 20 μL/well on SDS-PAGE gels (4-12% NuPAGE Bis-Tris, Invitrogen). Gels were run at 150-200 V for 35-50 min in 1×2-(N-morpholino) ethanesulfonic acid (MES) sodium dodecyl sulfate (SDS) running buffer and stained with SimplyBlue™ SafeStain (Invitrogen).
Following SDS-PAGE, proteins were transferred onto nitrocellulose membrane and Western blot procedure using anti-Pfs230 human monoclonal antibodies (non patent related). The human monoclonal antibodies were tested for reactivity at 10 μg/mL to 20 ng of Pfs230D1+(non-tagged or tagged) loaded per lane. A secondary goat anti-human antibody was used at 1/2000 dilution followed by development with BCIP/NBT substrate.

B1: non-tagged Pfs230D1+: N-terminal Pfs230 fragment (aa 552-731, N585Q) without C-terminal tag, SEQ ID NO: 1 (protein)
chain: DVGVDELDKIDLSYETTESGDTAVSEDSYDKYASQNTNKEYVCDFTDQLKPTESGPKVKKCEVKVNEPLIKVKIICPLKGSVEKLYDNIEYVPKKSPYVVLTKEETKLKEKLLSKLIYGLLISPTVNEKENNFKEGVIEFTLPPVVHKATVFYFICDNSKTEDDNKKGNRGIVEVYVEPYG
modifications: Pfs230D1+
Turning to B1, the “induction of functional antibodies (ELISA units, transmission reducing activity in SMFA)” value in the test on P. falciparum NF54 line is “induced functional antibodies in rats”. In addition, the “reactivity to anti-Pfs230 monoclonal antibodies” value in test [1] was “reacted under non-reducing conditions”; in test [1] (listed as Non-tagged Pfs230D1+), “reacted to two conformational dependent anti-Pfs230 monoclonal antibodies”.

B2: tagged Pfs230D1+: N-terminal Pfs230 fragment (aa 552-731, N585Q) with C-terminal six histidine tag, SEQ ID NO: 2 (protein)
chain: DVGVDELDKIDLSYETTESGDTAVSEDSYDKYASQNTNKEYVCDFTDQLKPTESGPKVKKCEVKVNEPLIKVKIICPLKGSVEKLYDNIEYVPKKSPYVVLTKEETKLKEKLLSKLIYGLLISPTVNEKENNFKEGVIEFTLPPVVHKATVFYFICDNSKTEDDNKKGNRGIVEVYVEPYGHHHHHH
modifications: C-terminal His6 tag; Pfs230D1+
B2: in the test with P. falciparum NF54 line, the “induction of functional antibodies (ELISA units, transmission reducing activity in SMFA)” value was “induced functional antibodies in rats”. The figures for the “reactivity to anti-Pfs230 monoclonal antibodies” value in test [1] and in test [1] (listed as Pfs230D1+ containing histidine-tag) were “reacted under non-reducing conditions” and “reacted to two conformational dependent anti-Pfs230 monoclonal antibodies”, respectively.

(Values after patent US20230109998A1, “MALARIA TRANSMISSION-BLOCKING VACCINES” (PATH, priority 2020, published 2023).)
